The target in this test is peptide VWF73 (FRET substrate encompassing the ADAMTS13 recognition site of von Willebrand factor) (UniProt P04275). The test can be described thus: cell-based or functional assay. As to conditions: scale: µL of normal human plasma equivalent per 200,000 cells.
Chain of peptide VWF73 (FRET substrate encompassing the ADAMTS13 recognition site of von Willebrand factor) (P04275 1596-1668 limits assumed): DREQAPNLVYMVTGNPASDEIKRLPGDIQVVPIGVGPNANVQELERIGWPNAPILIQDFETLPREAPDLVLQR

As for “GPI-ADAMTS13 (AD5): first 745 amino acids of human ADAMTS13 fused to the DAF GPI anchor sequence (from UniProt Q76LX8 75-745) (enzyme)”, the VWF73 FRET assay, ADAMTS13 enzymatic activity (K562 cells) was 10 and the VWF73 FRET assay, ADAMTS13 enzymatic activity (iPSC-derived erythroid cells) worked out at 10.

For the origin of these results see patent publication US20220213462A1.
